Laboratory results taken from PMC12680531.
Substitutions are numbered along the chain they refer to. Names and notes keep the numbering of the source.

T1: cell surface TM4SF4 of human cancer cell lines, P48230
T1 chain: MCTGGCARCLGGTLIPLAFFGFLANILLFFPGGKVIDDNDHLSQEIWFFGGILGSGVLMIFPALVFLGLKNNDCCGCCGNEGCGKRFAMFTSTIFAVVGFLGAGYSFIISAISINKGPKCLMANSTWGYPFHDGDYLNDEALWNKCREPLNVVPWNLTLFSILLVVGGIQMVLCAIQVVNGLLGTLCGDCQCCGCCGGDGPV

B1: humanized 2B7 antibody Hz2B7-1.1 L:N31V (protein)
chain 1: EITLKESGPTLVKPTQTLTLTCTFSGFSLSTYGIGVSWIRQPPGKALEWLAHIWWNDNKYYNTALKSRLTITKDTSKNQVVLTMTNMDPVDTATYYCARKEGSSAPFAYWGQGTLVTVSS
chain 2: DIVMTQSPDSLAVSLGERATINCKSSQSLLVSSNQKNYLAWYQQKPGQPPKLLIYFASTRESGVPDRFSGSGSGTDFTLTISLMQAEDVAVYYCQQHYRTPPTFGQGTKVEIK
B2: humanized 2B7 antibody Hz2B7-1.1 L:N31F (protein)
chain 1: B1 chain 1
chain 2: B1 chain 2 with V31F

Target: T1, cell surface TM4SF4 of human cancer …
Test: flow cytometry on cells
Settings: chain shown with the change, n = 3, parent: est. 100, read off a plot

percent of parent (A549 cells) [%]	percent of parent (Calu-3 cells) [%]	Binder
97	87	B1
130	100	B2
